In the nanobody polyreactivity screen of Harvey et al. (2022):

Assay: yeast display, Sf9 membrane polyspecificity reagent, FACS + sequencing; frameworks hold sequencing errors
Outline: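 Galactose induction of a Saccharomyces cerevisiae BJ5465 synthetic nanobody display library ran 36–48 hours. The cells were then stained for 1 hour at 4 °C with 10% biotinylated, detergent-solubilized Sf9 membrane reagent, pulled down on streptavidin microbeads and FACS-sorted into low and high (top ~1%) gates on expression and reagent-binding fluorescence. Labels for polyreactivity follow the gate of origin.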

| Sequence | polyreactivity (PSR sort gate) |
| --- | --- |
| QVQLVESGGGLVQAGGSLRLSCAASGFIFVPYAMGWYRQAPGKERELVASITYTGGSTYYADSVKGRFTISRDNAKNTVYLQMNSLKPEDTAVYYCASRYQYWRLHMDYWGQGTPVTVSS | low polyreactivity |
| QVQLVESGGGLVQAGGSLRLSCAASGFIFVRYAMGWYRQAPGKEREFVAAISGGAGSTYYADSVKGRFTISRDNAKNTVYLQMNSLKPEDTAVYYCNRVRSLRYGYWGQGTQVTVSS | high polyreactivity |
| QVQLVESGGGLVQAGGSLRLSCAASGFIFVSYAMGWYRQAPGKERELVAAIDRIGGITYYADSVKGRFTIARDIAKNTVYLQMNSLKPEDTAVYYCAAAARYATVRVGREYYWGQGTQVTVSS | low polyreactivity |
| QVQLVESGGGLVQAGGSLRLSCAASGFIFVTYAMGWYRQAPGKERELVAAITNSGGTTYYADSVKGRFTISRDNAKNTVYLQMISLKPEDSAVYYCNKPYGAETAHREFDYWGQGTQVTVSS | low polyreactivity |
| QVQLVESGGGLVQAGGSLRLSCAASGFIFVTYAMGWYRQAPGKETELVAAINNSGGTTYYADSVKGRFTISRDNAKNTVYLQMNSLKPEDTAVYFCNKRYGAETAHREFDYWGQGTQVTVSS | low polyreactivity |
| QVQLVESGGGLVQAGGSLRLSCAASGFIFVVYAMGWYRQAPGTERELVATISSGGGTYYADSVKGRFTISRDNAKITVYLQMNSLKPEDTAVYYCAARRRRLYHFGGNNYWGQGTLVTVSS | high polyreactivity |
| QVQLVESGGGLVQAGGSLRLSCAASGFIFVWYAMGWYRQAPGKERELVAGITASGGSTYYADSVKGRFTISRDNAKNTVYLQMNSLKPEDTAVYYCAADAWPLWLKLTPTSGGYWGQGTQVTVSS | low polyreactivity |
| QVQLVESGGGLVQAGGSLRLSCAASGFIFVYNDMGWYRPAPGKERELVAAISTSGGSTYYADSVKGRFTISRDNAKNTVYLQMNSLKPEDTAVYYCAAGPSYYPFFWPDFEYWGQGTQVTVSS | high polyreactivity |
| QVQLVESGGGLVQAGGSLRLSCAASGFIFVYYAMGWYRQAPGKERELVAAITSDVNTYYADSVKGRFSISRDNAKNTVYLHMNSLKPEDTAVDYCNADADDYRDYQDYDYWGQGSQVTVSS | low polyreactivity |
| QVQLVESGGGLVQAGGSLRLSCAASGFIFWDYAMGLYRQAPGKERELVAAISDSGGDTYYADSVKGRFTISRDNAKNTVYFQINSLKPEDTAVYYCSADVELWVFRGQQYDYWGQGTQVTVSS | low polyreactivity |
| QVQLVESGGGLVQAGGSLRLSCAASGFIFWDYAMGWYRQAPGKEREFVATISLSVGSTYYADSVKGRFTISRDNAKNTVYLQMNSLKPEDTAVYYCAAVTWGEGFDYWGQGTQVTVSS | low polyreactivity |
| QVQLVESGGGLVQAGGSLRLSCAASGFIFWLNAMGWYRQAPGKERELVAASSIGGRTNYADSVKGRFTISRDNAKNTVYLQMNSLKPDDTAVYYCNKDYRSVYKGRGFDYCGQGTQVTVSS | low polyreactivity |
| QVQLVESGGGLVQAGGSLRLSCAASGFIFWPNAMGWYRQPPGKERELVAAISYSGGSTYYADSVKGRFTISRDNAKNTVYLQMNSLKPEDTAVYYCAKLPYRRVDYGYWGQGTQVTVSS | high polyreactivity |
| QVQLVESGGGLVQAGGSLRLSCAASGFIFWQYAMGWYRQAPGKERELVAAITSRGGSTYYADSVKGRFTISRDNAKNTVYLKMNSLKPEDTAVYYCARLYPRHLNGDYWGQGTQVTVSS | high polyreactivity |
| QVQLVESGGGLVQAGGSLRLSCAASGFIFWQYTLGWYRQAPGKERELVAAINGGSSTYYADSVKGRFTISRDNAKNTVYVQKNSRKPEDTAVYYCAADRYLYHDRYEYDYWGQGTQVTVSS | high polyreactivity |
| QVQLVESGGGLVQAGGSLRLSCAASGFIFWRNAMGWYSQAPGQERELVAAITSGDRTNYADSVKGRFTISRDNAKNTVYLQMNSLKPEDTAVYYCNARRYRLVSYDYWGQGTQVTVSS | low polyreactivity |
| QVQLVESGGGLVQAGGSLRLSCAASGFIFWRNTMGWYRQAPGKERELVAVITRGGSTYYADSVKGRFTISRDNAKNTVYLQMNSLKPEDTAVYYCAARNDYYKTFSGYDYWGQGTQVTVSS | low polyreactivity |
| QVQLVESGGGLVQAGGSLRLSCAASGFIFWSYAMGWYRQAPGKERELVAAIDLTGGSTYYADSVKGRFTISRDNAKNTVYLQMNSLKPEDTAVYYCNADGDTYAFTNSDSGFDYWGQGTQVSVSS | low polyreactivity |
| QVQLVESGGGLVQAGGSLRLSCAASGFIFWTYAMGWYRQAPGKERELVARISWSGGSTYYADSVKGRFTISRDNAKNTVYLQMNSLKPEDTAVYYCARLATLYESIEYDYWGQGTQVTVSS | low polyreactivity |
| QVQLVESGGGLVQAGGSLRLSCAASGFIFWYNAMGWYRQAPGKERELVASISGSGGSTYYADSVKGRFTISRDNAKNTVYLQMNSLKPEDTAVYYCAVYFFSFWGQGTQVTVSS | low polyreactivity |
| QVQLVESGGGLVQAGGSLRLSCAASGFIFWYYAMGWSRQAPGKERELVAAISYGGGSTYYADSVKGRFTISRDNAKNTVYLQMNSLKPEDTAVYYCAAAPRWKASRLYYWGQGTQVTVSS | high polyreactivity |

| Sequence | polyreactivity (PSR sort gate) |
| --- | --- |
| QVQLVESGGGLVQAGGSLRLSCAASGFIFWYYAMGWYRHAPGKERELVAVISSGSSTHYADSVKGRFTISRDNAKNTVYLQMNSLKPEDTAVDYCAARIRTRYFTGYYYWGQGTQVSVSS | high polyreactivity |
| QVQLVESGGGLVQAGGSLRLSCAASGFIFWYYAMGWYRQAPGKERELVAAINSSGGSTYYADSVKGRFTISRDNAKNTVSLQMNSLKPEDTAVYYCAARAYQRGNYWGQGTQVTVSS | high polyreactivity |
| QVQLVESGGGLVQAGGSLRLSCAASGFIFYAYVMGWYRQAPGKERELVAAISRNGGSTYYADSVKGRFTISRDNAKNTVYLQMKSLKPEDTAVYYCAALSYYRYSQEDDYWGQGTQVTVSS | high polyreactivity |
| QVQLVESGGGLVQAGGSLRLSCAASGFIFYDYAMGWYRQAPGKERELVAAISSGGSTNYADSVKGRFTISRDNAKNTVYLQMNSLIPEDTEVYYCAADDRSYATWKRDYDYWGQGTQVTVSS | low polyreactivity |
| QVQLVESGGGLVQAGGSLRLSCAASGFIFYDYAMGWYRQAPGKERELVAAITVDGGTTYYADSVKGRFTISRDNAKNTVYLQMNSLKPEDTAVYYCAADTYYGFDSNYEYCGQGTQVTVSS | low polyreactivity |
| QVQLVESGGGLVQAGGSLRLSCAASGFIFYDYAMGWYRQATGKERELVAGITDSGGSTSYADSVKGRFTISRDNAKNTDYLQMNSLKPEDTAVYYCAADNYVRAGINYDYWGQGTQVTVSS | low polyreactivity |
| QVQLVESGGGLVQAGGSLRLSCAASGFIFYEYAMGWYRQATGKERELVAAITYSAGSTYYADSVKGRFTISRDNAKNTVYLQMNSLKPEDTAVYFCAKVDSEYRQVIQQEDDYWGQGTQVTVSS | low polyreactivity |
| QVQLVESGGGLVQAGGSLRLSCAASGFIFYFYAMGWYRQATGKEMELVAAISDGVSTYYADSVKGRFTISRDNAKNTVYLQMNCLKPEDTAVYYCAVSRGDDPEFDYWGQGTQVTVSS | low polyreactivity |
| QVQLVESGGGLVQAGGSLRLSCAASGFIFYGNAMAWSRQAPGKEREFVAAINGRGVSTYYADSVKGRFTISRDNAKNSDYLQMNSLKPEDTAVYYCNKVYWGRGPLEYWGQGTQVTVSS | high polyreactivity |
| QVQLVESGGGLVQAGGSLRLSCAASGFIFYGNTMGWYRQAPGKERELVAAISGSTGGTYYADSVKGRFTISRDNAKNTVYLQMNSLKPEDTAVYYCAAVVPWYASYSRYYYWGQGTQVTVSS | high polyreactivity |
| QVQLVESGGGLVQAGGSLRLSCAASGFIFYGNTMGWYRQAPGKERELVAAISWSGGTTYYADSVKGRFTISRDNAKNTVYLQMNSLKPEDTAVYYCNRAAFRYRYDYWGQGTQVTVSS | high polyreactivity |
| QVQLVESGGGLVQAGGSLRLSCAASGFIFYHYAMGWYRQAPGKERELVAAISWSGGSTYYADSVKGRFTISRDNAKNTVYLQMNSLKPEDTAVYYCAAANTNRFPYGYWGQGTQVTVSS | high polyreactivity |
| QVQLVESGGGLVQAGGSLRLSCAASGFIFYINAMVWYRQAPGKERELVAAITNVGSTNYADSVKGRFTISRDNAKNTVYLQMNSLKPEDTAVYYCAAEKGLVALVYKYDYWGQGTQVTVSS | low polyreactivity |
| QVQLVESGGGLVQAGGSLRLSCAASGFIFYKNAKGWYRQAPGKERELVAAISQIGGTTYYADSVKGRFTISRDNAKNTVYVQMNSLKPEDTAVYYCAASRRVQSDYWGQGTQVTVSS | high polyreactivity |
| QVQLVESGGGLVQAGGSLRLSCAASGFIFYKYAKGWYRQAPGKEREFVAAITWSGGNTYYADSVKGRFTISRDNAKNTVYLQMNSLKPEDTAVYYCAARDSKWGQGTQVTVSS | low polyreactivity |
| QVQLVESGGGLVQAGGSLRLSCAASGFIFYLNVMGWYRQAPGKERELVATITSGGSTNYADSVKGRFTISRDNAKNTVYLQMNSLKPEDTAVYYCAARRGKSYYWYNYWGQGTQVTVSS | high polyreactivity |
| QVQLVESGGGLVQAGGSLRLSCAASGFIFYQYAMGWYRQAPGKERELVAAISKSGGNTYYADSVKGRFTISRDNAKNTVYLQMNSLKPEDTAVYYCAADRGQRGMYYWGQGSQVTVSS | high polyreactivity |
| QVQLVESGGGLVQAGGSLRLSCAASGFIFYQYAMGWYRQAPGKERELVATISFRGGRTYYADSVKGRFTISRDNAKNTVYLQMNSLKPEDTAVYYCNAKRVSSRFYKWDYYWGQGTQVTVSS | high polyreactivity |
| QVQLVESGGGLVQAGGSLRLSCAASGFIFYQYAMGWYRQAPGKERELVAVISRTGSTSYADSVKGRFTISRDNAKNTVYLQMNSLKPEDTAVYYCAARYYFYDYWGQGSQVTVSS | high polyreactivity |
| QVQLVESGGGLVQAGGSLRLSCAASGFIFYRNAMGWYRPAPGKERELVAAINRGGSTYYADSVKGRFTISRDNAKNTVYLQMNSLKPEDTAVYYCAAYHLRPSRYDYWGQGTQVTVSS | high polyreactivity |
